Biological target: the molecule itself
Experiment: SEC-MALS

B1: Qin eTud3 (Qin 959-1195) (domain or fragment, Drosophila melanogaster, UniProt Q9VE55 959-1195, looked up)
chain: VRPVELSPYRMPDNTERNKRTTVNILYVRKPDEFYVTLPHFQKAINNLQKSVQKAAAAMYQNMLPRTDWQVGDMCYARVQANCDSQALWYRGVVTGVIPPGITCPIVRYQVHLRDLGELIDDVHSSSLANIDEADMRISSSAKRCHLHGIRPIGDEWSKDAIDFFMDQLKAYNEIHVTGRGRTENSLSVILWGSLSILTGPFSPATIKYVNINKALLMAGMAEKDHNSDSEDDQQSM
stoichiometry N: 2

From article doi:10.1101/2021.10.25.465661 (bioRxiv, 2021)
